T1: human LAG-3 domain 1-2 Fc fusion, chimeric construct #8 (mutated region AA 59-66) (human, UniProt P18627 23-266)
T1 construct: not shown: human IgG1 Fc, AA P101-K330
T1 chain: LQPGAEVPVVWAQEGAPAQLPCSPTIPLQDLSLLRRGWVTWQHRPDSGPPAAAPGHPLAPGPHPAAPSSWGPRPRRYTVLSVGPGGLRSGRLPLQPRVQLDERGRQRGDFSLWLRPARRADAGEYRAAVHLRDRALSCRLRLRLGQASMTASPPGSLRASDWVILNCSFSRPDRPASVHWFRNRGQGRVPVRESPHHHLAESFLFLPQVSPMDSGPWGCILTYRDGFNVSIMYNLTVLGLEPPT

T2: human LAG-3 domain 1-2 Fc fusion, chimeric construct #27 (mutated region AA 161-166) (human, UniProt P18627 23-266)
T2 construct: not shown: human IgG1 Fc, AA P101-K330
T2 chain: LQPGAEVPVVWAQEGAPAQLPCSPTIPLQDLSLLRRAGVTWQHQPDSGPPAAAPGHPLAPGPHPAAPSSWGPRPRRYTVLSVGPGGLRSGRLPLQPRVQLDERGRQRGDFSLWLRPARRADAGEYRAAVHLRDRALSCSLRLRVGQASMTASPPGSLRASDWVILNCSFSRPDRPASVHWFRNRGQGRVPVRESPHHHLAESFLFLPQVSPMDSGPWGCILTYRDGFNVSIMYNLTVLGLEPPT

T3: human LAG-3 domain 1-2 Fc fusion, chimeric construct #26 (mutated region AA 157-161) (human, UniProt P18627 23-266)
T3 construct: not shown: human IgG1 Fc, AA P101-K330
T3 chain: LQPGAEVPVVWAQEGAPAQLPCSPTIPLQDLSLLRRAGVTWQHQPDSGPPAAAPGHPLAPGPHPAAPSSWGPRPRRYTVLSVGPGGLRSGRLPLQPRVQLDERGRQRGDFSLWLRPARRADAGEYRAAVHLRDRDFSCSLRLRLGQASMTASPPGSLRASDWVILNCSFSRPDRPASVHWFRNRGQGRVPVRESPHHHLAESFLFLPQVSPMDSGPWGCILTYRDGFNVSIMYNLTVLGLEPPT

T4: human LAG-3 domain 1-2 Fc fusion, chimeric construct #5 (mutated region AA 46-51) (human, UniProt P18627 23-266)
T4 construct: not shown: human IgG1 Fc, AA P101-K330
T4 chain: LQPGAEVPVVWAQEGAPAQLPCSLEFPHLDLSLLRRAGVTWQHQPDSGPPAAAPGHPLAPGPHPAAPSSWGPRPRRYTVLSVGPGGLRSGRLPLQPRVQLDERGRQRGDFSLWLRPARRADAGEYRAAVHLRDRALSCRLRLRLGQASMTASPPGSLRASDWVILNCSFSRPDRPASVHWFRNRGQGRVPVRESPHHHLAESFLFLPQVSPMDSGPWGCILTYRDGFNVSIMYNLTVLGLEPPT

T5: human LAG-3 domain 1-2 Fc fusion, chimeric construct #28 (mutated region AA 84-90, cynomolgus backmutations) (human, UniProt P18627 23-266)
T5 construct: not shown: human IgG1 Fc, AA P101-K330
T5 chain: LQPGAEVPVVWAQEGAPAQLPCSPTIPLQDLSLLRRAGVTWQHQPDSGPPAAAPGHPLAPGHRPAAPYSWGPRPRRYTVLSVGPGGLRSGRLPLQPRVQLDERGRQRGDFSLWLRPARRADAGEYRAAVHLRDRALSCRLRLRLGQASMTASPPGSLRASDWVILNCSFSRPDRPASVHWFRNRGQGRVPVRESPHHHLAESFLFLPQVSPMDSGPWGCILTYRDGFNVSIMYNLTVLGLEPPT

T6: human LAG-3 domain 1-2 Fc fusion, chimeric construct #7 (mutated region AA 53-60) (human, UniProt P18627 23-266)
T6 construct: not shown: human IgG1 Fc, AA P101-K330
T6 chain: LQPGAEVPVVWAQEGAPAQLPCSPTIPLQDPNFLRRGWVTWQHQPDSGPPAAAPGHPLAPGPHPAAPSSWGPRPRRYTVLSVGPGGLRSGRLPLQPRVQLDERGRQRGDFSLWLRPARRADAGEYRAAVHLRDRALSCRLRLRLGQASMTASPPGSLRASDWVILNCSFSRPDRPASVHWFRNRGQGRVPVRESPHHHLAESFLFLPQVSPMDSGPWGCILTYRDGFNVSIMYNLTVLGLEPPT

T7: human LAG-3 domain 1-2 Fc fusion, chimeric construct #25 (mutated region AA 154-158) (human, UniProt P18627 23-266)
T7 construct: not shown: human IgG1 Fc, AA P101-K330
T7 chain: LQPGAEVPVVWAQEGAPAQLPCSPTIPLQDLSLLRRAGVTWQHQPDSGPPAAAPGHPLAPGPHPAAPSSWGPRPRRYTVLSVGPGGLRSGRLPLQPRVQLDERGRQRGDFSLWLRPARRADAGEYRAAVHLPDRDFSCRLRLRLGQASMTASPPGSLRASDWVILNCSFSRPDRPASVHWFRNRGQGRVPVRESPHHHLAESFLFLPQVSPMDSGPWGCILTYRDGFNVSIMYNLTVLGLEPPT

T8: human LAG-3 ECD human IgG1 Fc fusion (human, UniProt P18627 23-450)
T8 construct: not shown: human IgG1 Fc, AA P101-K330
T8 sequence: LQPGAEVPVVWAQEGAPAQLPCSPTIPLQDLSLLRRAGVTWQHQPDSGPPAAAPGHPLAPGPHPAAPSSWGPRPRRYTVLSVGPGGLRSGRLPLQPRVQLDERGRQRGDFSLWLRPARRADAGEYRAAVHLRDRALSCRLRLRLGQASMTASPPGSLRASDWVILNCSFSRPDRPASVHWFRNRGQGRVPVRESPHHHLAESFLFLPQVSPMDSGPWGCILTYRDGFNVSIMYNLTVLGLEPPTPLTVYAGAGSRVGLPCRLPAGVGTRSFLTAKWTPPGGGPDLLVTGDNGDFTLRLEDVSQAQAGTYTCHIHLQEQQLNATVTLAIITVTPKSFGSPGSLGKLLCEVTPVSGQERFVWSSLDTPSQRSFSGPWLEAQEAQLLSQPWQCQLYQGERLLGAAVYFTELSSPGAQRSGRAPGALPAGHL


Tests used:
[1] = target: T1, human LAG-3 domain 1-2 Fc fusion, …; assay: SPR, Fab over captured mutant LAG-3-Fc;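 also: LAG-3 fusion proteins captured on an anti-human IgG Fc sensor chip and read on an IBIS MX96 biosensor, Fab association and dissociation each 15 min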
Protocol: (§1) The LAG-3 fusion proteins were immobilized onto a G-a-hu-IgG Fc SensEye® (Ssens BV, The Netherlands) for 15 minutes using a Continuous Flow Microspotter (CFM, Wasatch Microfluidics, Salt Lake City, US). After spotting, the SensEye® was positioned in an IBIS MX96 biosensor and captured proteins were evaluated for binding affinity. […] Fab association was performed for 15 minutes and antigen dissociation was performed for 15 minutes. The recorded binding responses were fitted to a simple Langmuir 1:1 binding model with Scrubber 2 software for calculation of the on-rate (kon or ka), off-rate (koff or kd) and affinity (KD) constants.

[2] = target: T2, human LAG-3 domain 1-2 Fc fusion, …; assay: SPR, Fab over captured mutant LAG-3-Fc;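 also: LAG-3 fusion proteins captured on an anti-human IgG Fc sensor chip and read on an IBIS MX96 biosensor, Fab association and dissociation each 15 min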
Protocol: as §1

[3] = target: T3, human LAG-3 domain 1-2 Fc fusion, …; assay: SPR, Fab over captured mutant LAG-3-Fc;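 also: LAG-3 fusion proteins captured on an anti-human IgG Fc sensor chip and read on an IBIS MX96 biosensor, Fab association and dissociation each 15 min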
Protocol: as §1

[4] = target: T4, human LAG-3 domain 1-2 Fc fusion, …; assay: SPR, Fab over captured mutant LAG-3-Fc;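 also: LAG-3 fusion proteins captured on an anti-human IgG Fc sensor chip and read on an IBIS MX96 biosensor, Fab association and dissociation each 15 min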
Protocol: as §1

[5] = target: T5, human LAG-3 domain 1-2 Fc fusion, …; assay: SPR, Fab over captured mutant LAG-3-Fc
Protocol: as §1

[6] = target: T6, human LAG-3 domain 1-2 Fc fusion, …; assay: SPR, Fab over captured mutant LAG-3-Fc
Protocol: as §1

[7] = target: T7, human LAG-3 domain 1-2 Fc fusion, …; assay: SPR, Fab over captured mutant LAG-3-Fc
Protocol: as §1

[8] = target: T8, human LAG-3 ECD human IgG1 Fc fusion; assay: SPR, Fab over captured LAG-3 ECD-Fc
Protocol: Antigens were purified using standard procedures and captured onto an G-a-hu-IgG Fc SensEye® (Ssens BV, The Netherlands) for 15 minutes using a Continuous Flow Microspotter (CFM, Wasatch Microfluidics, Salt Lake City, US). After spotting, the SensEye® was positioned in the IBIS MX96 biosensor and remaining capture sites blocked. […] Fab association was performed for 15 minutes and antigen dissociation was performed for 15 minutes. The recorded binding responses were fitted to a simple Langmuir 1:1 binding model with Scrubber 2 software for calculation of the on-rate (kon or ka), off-rate (koff or kd) and affinity (KL) constants.

Binder | KD mutant/KD wild type [1] | KD mutant/KD wild type [2] | KD mutant/KD wild type [3] | KD mutant/KD wild type [4] | KD mutant/KD wild type [5] | KD mutant/KD wild type [6] | KD mutant/KD wild type [7] | Kd [8] | koff [8] | kon [8] | binding result [1] | binding result [4] | binding result [6] | binding result [3] | binding result [7]
Fab fragment of antibody 15011 (Fab, V domains shown, not shown: a dimerising Fc or GST, monomeric Fab made by GingisKHAN digestion of the IgG1) VH: EVQLLESGGGLVQPGGSLRLSCAASGFDFRSYAMMWVRQAPGKGLEWVGGINGEVGGSNTYYAPAVKGRATISRDNSKNTLYLQMNSLRAEDTAVYYCVKGAGACGICNDDIDAWGQGTLVTVSS VL: SYELTQDPAVSVALGQTVRITCSGAGSYAGSYYYGWHQQKPGQAPVTVIYDNDKRPSNIPDRFSGSSSGNTASLTITGAQAEDEADYYCGSTNDNDDGGLFGSGTKVTVLG | 0.5 fold | 2.3 fold | 0.7 fold | 0.5 fold | 0.6 fold | 0.5 fold | 1.9 fold | 4.3 nM | 0.00048 s⁻¹ | 110000 M⁻¹ s⁻¹ |  |  |  |  | 
Fab fragment of antibody 15532 (Fab, V domains shown, not shown: a dimerising Fc or GST, monomeric Fab made by GingisKHAN digestion of the IgG1) VH: QVQLQQWGAGLLRPSETLSLTCAVYGESFSGYYWNWIRQPPGKGLEWIGEINHSGSTNYNPSLKSRVTISVDTSKTQFSLKLSSVTAADTAVYYCARGWDLLDWNDYWNEYWGQGTLVTVSS VL: EIVLTQSPATLSLSPGERATLSCRASQSVSSYLAWYQQKPGQAPRLLIYDASNRATGIPARFSGSGSGTDFTLTISSLEPEDFAVYYCQQRSNWPLTFGGGTKVEIKR | 2.7 fold | 0.8 fold | 1.1 fold | 2.7 fold | 4.8 fold | 3.4 fold | 1.1 fold | 5.8 nM | 0.00065 s⁻¹ | 110000 M⁻¹ s⁻¹ |  |  |  |  | 

Second part, the binder after the results:

KD mutant/KD wild type [1] | KD mutant/KD wild type [2] | KD mutant/KD wild type [3] | KD mutant/KD wild type [4] | KD mutant/KD wild type [5] | KD mutant/KD wild type [6] | KD mutant/KD wild type [7] | Kd [8] | koff [8] | kon [8] | binding result [1] | binding result [4] | binding result [6] | binding result [3] | binding result [7] | Binder
 | 1.3 fold | 0.6 fold |  | 1.1 fold |  | 0.8 fold | 30 nM | 0.002 s⁻¹ | 66000 M⁻¹ s⁻¹ | no binding (tested: 300 nM) | no binding (tested: 300 nM) | no binding (tested: 300 nM) |  |  | Fab fragment of antibody 15431 (Fab, V domains shown, not shown: a dimerising Fc or GST, monomeric Fab made by GingisKHAN digestion of the IgG1) VH: QVQLQQSGPGLVKPSQTLSLTCAISGDSVSSNSAAWNWIRQSPSRGLEWLGRTYYRSKWYNDYAVSVKSRITINPDTSKNQFSLQLNSVTPEDTAVYYCARDDDWNDFDYWGQGTLVTVSS VL: EIVLTQSPATLSLSPGERATLSCRASQSVSSYLAWYQQKPGQAPRLLIYDASNRATGIPARFSGSGSGTDFTLTISSLEPEDFAVYYCQQRSNWPLTFGGGTKVEIKR
 | 1.7 fold |  |  | 0.5 fold |  |  | 27 nM | 0.003 s⁻¹ | 110000 M⁻¹ s⁻¹ | no binding (tested: 300 nM) | no binding (tested: 300 nM) | no binding (tested: 300 nM) | no binding (tested: 300 nM) | no binding (tested: 300 nM) | Fab fragment of antibody 15572 (Fab, V domains shown, not shown: a dimerising Fc or GST, monomeric Fab made by GingisKHAN digestion of the IgG1) VH: QLQLQESGPGLVKPSETLSLTCTVSGDSISSSSYYWGWIRQPPGKGLEWIGSIFYSGNTYYNPSLKSRVTISVDTSKNQFSLKLSSVTAADTAVYYCAREDDFLTDYYGAFDIWGQGTMVTVSS VL: not shown

— patent publication US20220363757A1 (SYMPHOGEN A S, published 2022)
